From patent publication US20250296960A1, “PEPTIDE COMPOSITIONS AND METHODS OF USE THEREOF” (priority 2022, published 2025)
Where two headings read alike, the source gives them in different places. Numbered stars: 1 amine (or outer) side, 2 acyl side, 3 side chain; on linkers, the order of the positions; unused ones are H or OH. Square brackets hold non-standard residues; d marks the D form. Primed or numbered codes have the meaning given here. Side chains are listed from the residue outwards. Ends that are not written are not given here. Peptide text beside a SMILES is read from it. * marks the point of attachment. C18 = C18 fatty acid (C16-C22 fatty acids conjugated via γGlu/8-amino-3,6-dioxaoctanoic acid spacers); C18″ = C18 fatty acid moiety (of 2OEG-γGlu-C18, K*); C20 = C20 fatty acid moiety (of 2OEG-γGlu-C20, K**); C20 diacid = O=C(O)CCCCCCCCCCCCCCCCCCC(=O)*; γGlu = O=C(O)[C@H](CCC(=O)[*:2])N[*:1]; αMeR = C[C@](N)(CCCNC(=N)N)C(=O)O; AEEA = NCCOCCOCC(=O)O; Aib = CC(C)(N)C(=O)O

T1: human glucose-dependent insulinotropic polypeptide receptor (GIPR), expressed on CHO-K1 cells (human, UniProt P48546 22-466)
T1 sequence (looked up): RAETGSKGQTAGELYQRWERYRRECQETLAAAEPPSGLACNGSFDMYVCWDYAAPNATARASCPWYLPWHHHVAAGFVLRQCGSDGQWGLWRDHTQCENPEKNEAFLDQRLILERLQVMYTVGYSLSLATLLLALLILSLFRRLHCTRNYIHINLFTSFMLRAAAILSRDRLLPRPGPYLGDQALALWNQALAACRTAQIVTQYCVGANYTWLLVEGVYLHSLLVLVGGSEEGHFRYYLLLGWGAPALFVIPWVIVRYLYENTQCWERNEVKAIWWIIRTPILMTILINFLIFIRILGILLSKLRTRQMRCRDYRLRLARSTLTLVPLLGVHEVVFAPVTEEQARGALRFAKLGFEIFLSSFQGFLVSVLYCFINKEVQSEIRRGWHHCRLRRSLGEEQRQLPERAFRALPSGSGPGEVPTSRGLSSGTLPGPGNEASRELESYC

B1: SEQ ID NO. 110 (peptide)
peptide: Y[Aib]QGTFTSDYSK([AEEA-AEEA-γGlu-C20])YLDYMMQ[αMeR]DFVKWLLEGGPSSGAPPPS-NH2
modifications: not fully specified (residue 24); printed as YAibQGT FTSDY SK**YLD YMMQαR DFVB*W LLEGG PSSGA PPPS

Key:
[1] = In vivo efficacy in mAMLN (obese and NASH) mice, 4 weeks; conditions: after 4 weeks
[2] = rat, in vivo, iv, 100 nmol/kg
Experimental: This study was conducted to evaluate the PK profile of SEQ ID NOs. 77, 102, and 103 and compare the PK profile by the different lipidated structure of peptides in rat plasma by IV administration. SEQ ID NOs. The peptides were delivered at 0.02% PS80 in PBS and dosing volume was 2.5 mL/kg.
The animals were not fasted prior to dosing. 0.2-0.4 mL of whole blood was taken from vein at each time point (0.167, 0.5, 1, 2, 4, 6, 8, 24, and 48 hr after administration) and transferred into the heparin coated tube.
The resulting plasma of 0.1-0.2 mL obtained by centrifugation of the blood samples was transferred into the tube and stored at −70° C. until analysis. The concentrations of peptides in plasma were determined by LC-MS/MS analysis.

[3] = In vivo efficacy in CDA-HFD (NASH) mice, 4 weeks; conditions: Example 16; for body weight compared to vehicle-treated control, in words: 20 nmol/kg s.c. Q2D, 4 weeks; for liver enzymes and liver steatosis compared to vehicle-treated control, in words: end of treatment
Experimental: This study was conducted to evaluate the efficacy of SEQ ID NOs. […] SEQ ID NOs. The peptides were delivered at 0.02% PS80 in PBS and dosing volume was 10 mL/kg. Control group was administered by vehicle without peptide.
Body weight changes were monitored Q2D; serum chemistry (end); hepatic TG (end); and histological analysis (end). […]

[4] = target: T2, human glucagon receptor (GCGR), expressed on CHO-K1 cells (human, UniProt P47871 26-477); experiment: cell-based or functional assay
[5] = target: T1, human glucose-dependent insulinotropic …; experiment: cell-based or functional assay
[6] = target: T3, human GLP-1 receptor (GLP-1R), expressed on CHO-K1 cells (human, UniProt P43220 24-463); experiment: cell-based or functional assay
[7] = target: T2, human glucagon receptor (GCGR), …; experiment: cell-based or functional assay; remark: listed apart in the source
[8] = target: T1, human glucose-dependent insulinotropic …; experiment: cell-based or functional assay; remark: listed apart in the source
[9] = target: T3, human GLP-1 receptor (GLP-1R), …; experiment: cell-based or functional assay; remark: listed apart in the source
[10] = target: T2, human glucagon receptor (GCGR), …; experiment: cell-based or functional assay; remark: listed apart in the source
[11] = target: T1, human glucose-dependent insulinotropic …; experiment: cell-based or functional assay; remark: listed apart in the source
[12] = target: T3, human GLP-1 receptor (GLP-1R), …; experiment: cell-based or functional assay; remark: listed apart in the source
[13] = target: T2, human glucagon receptor (GCGR), …; experiment: cell-based or functional assay; remark: listed apart in the source
[14] = target: T1, human glucose-dependent insulinotropic …; experiment: cell-based or functional assay; remark: listed apart in the source
[15] = target: T3, human GLP-1 receptor (GLP-1R), …; experiment: cell-based or functional assay; remark: listed apart in the source
[16] = target: T2, human glucagon receptor (GCGR), …; experiment: cell-based or functional assay; remark: listed apart in the source
[17] = target: T1, human glucose-dependent insulinotropic …; experiment: cell-based or functional assay; remark: listed apart in the source
[18] = target: T3, human GLP-1 receptor (GLP-1R), …; experiment: cell-based or functional assay; remark: listed apart in the source

T2 sequence (P47871 26-477): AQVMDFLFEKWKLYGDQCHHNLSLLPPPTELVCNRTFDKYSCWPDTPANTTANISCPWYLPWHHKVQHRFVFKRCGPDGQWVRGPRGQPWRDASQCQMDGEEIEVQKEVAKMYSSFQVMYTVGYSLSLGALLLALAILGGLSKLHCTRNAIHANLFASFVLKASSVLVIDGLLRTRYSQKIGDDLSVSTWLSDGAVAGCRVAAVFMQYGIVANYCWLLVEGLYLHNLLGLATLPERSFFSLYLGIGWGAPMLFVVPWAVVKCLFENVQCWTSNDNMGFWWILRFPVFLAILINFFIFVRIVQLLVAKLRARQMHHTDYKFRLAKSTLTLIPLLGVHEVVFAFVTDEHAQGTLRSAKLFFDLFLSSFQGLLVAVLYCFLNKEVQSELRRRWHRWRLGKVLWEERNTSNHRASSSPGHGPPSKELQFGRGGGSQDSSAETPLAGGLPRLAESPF

| Molecule | Ratio vs. GLP-1R [4] | Relative % to native ligand [4] [%] | Ratio vs. GLP-1R [5] | Relative % to native ligand [5] [%] | Ratio vs. GLP-1R [6] | Relative % to native ligand [6] [%] | Ratio vs. GLP-1R [7] | Relative % to native ligand [7] [%] | Ratio vs. GLP-1R [8] | Relative % to native ligand [8] [%] | Ratio vs. GLP-1R [9] | Relative % to native ligand [9] [%] | further results |
| --- | --- | --- | --- | --- | --- | --- | --- | --- | --- | --- | --- | --- | --- |
| 97 (Y[Aib]QGTFTSDYSK([AEEA-AEEA-γGlu-C18])YLDYMMQRDFVK(N‑Biotinoyl‑N'‑(6-maleimidohexanoyl)hydrazide)WLLEGGPSSGAPPPS-NH2) [compound 97] |  |  |  |  |  |  |  |  |  |  |  |  | NAS score, in words [1]: statistically decreased more than the level of tirzepatide; hepatic steatosis (histological score), in words [1]: significantly reduced; liver weight, visceral fat weight, liver enzymes, and liver steatosis compared to vehicle-treated control, in words [1]: significantly reduced |
| CSCC[C@H](NC(=O)[C@H](Cc1ccc(O)cc1)NC(=O)[C@H](CC(=O)O)NC(=O)[C@H](CC(C)C)NC(=O)[C@H](CC(C)C)NC(=O)[C@H](CCCCNC(=O)COCCOCCNC(=O)COCCOCCNC(=O)CC[C@H](NC(=O)CCCCCCCCCCCCCCCCCCC(=O)O)C(=O)O)NC(=O)[C@H](CO)NC(=O)[C@H](Cc1ccc(O)cc1)NC(=O)[C@H](CC(=O)O)NC(=O)[C@H](CO)NC(=O)[C@@H](NC(=O)[C@H](Cc1ccccc1)NC(=O)[C@@H](NC(=O)CNC(=O)[C@H](CCC(N)=O)NC(=O)C(C)(C)NC(=O)[C@@H](N)Cc1ccc(O)cc1)[C@@H](C)O)[C@@H](C)O)C(=O)N[C@@H](CCSC)C(=O)N[C@@H](CCC(N)=O)C(=O)N[C@@H](CCCNC(=N)N)C(=O)N[C@@H](CC(=O)O)C(=O)N[C@@H](Cc1ccccc1)C(=O)N[C@H](C(=O)N[C@@H](CCC(N)=O)C(=O)N[C@@H](Cc1c[nH]c2ccccc12)C(=O)N[C@@H](CC(C)C)C(=O)N[C@@H](CC(C)C)C(=O)N[C@@H](CCC(=O)O)C(=O)NCC(=O)NCC(=O)N1CCC[C@H]1C(=O)N[C@@H](CO)C(=O)N[C@@H](CO)C(=O)NCC(=O)N[C@@H](C)C(=O)N1CCC[C@H]1C(=O)N1CCC[C@H]1C(=O)N1CCC[C@H]1C(=O)N[C@@H](CO)C(N)=O)C(C)C [compound 103] (H-Y[Aib]QGTFTSDYSK([AEEA-AEEA-γGlu-C20 diacid])LLDYMMQRDFVQWLLEGGPSSGAPPPS-NH2; N-terminus and C-terminus assumed) |  |  |  |  |  |  |  |  |  |  |  |  | AUCinf/dose [2]: 629.51 ± 76.87 kg·h/L; half-life [2]: 9.59 ± 1.32 h; efficacy in the NASH model, in words [3]: superior efficacy compared to SEQ ID NO. 77; hepatic steatosis score compared to CDA-HFD control, in words [3]: significantly reduced; scores of hepatocytes inflammation and NAS score, in words [3]: statistically reduced; body weight compared to vehicle-treated control, in words [3]: reduce body weight; liver enzymes and liver steatosis compared to vehicle-treated control, in words [3]: reduce liver enzymes and liver steatosis significantly |
| CSCC[C@H](NC(=O)[C@H](Cc1ccc(O)cc1)NC(=O)[C@H](CC(=O)O)NC(=O)[C@H](CC(C)C)NC(=O)[C@H](CC(C)C)NC(=O)[C@H](CCCCNC(=O)COCCOCCNC(=O)CC[C@H](NC(=O)CCCCCCCCCCCCCCCCCCC(=O)O)C(=O)O)NC(=O)[C@H](CO)NC(=O)[C@H](Cc1ccc(O)cc1)NC(=O)[C@H](CC(=O)O)NC(=O)[C@H](CO)NC(=O)[C@@H](NC(=O)[C@H](Cc1ccccc1)NC(=O)[C@@H](NC(=O)CNC(=O)[C@H](CCC(N)=O)NC(=O)C(C)(C)NC(=O)[C@@H](N)Cc1ccc(O)cc1)[C@@H](C)O)[C@@H](C)O)C(=O)N[C@@H](CCSC)C(=O)N[C@@H](CCC(N)=O)C(=O)N[C@@H](CCCNC(=N)N)C(=O)N[C@@H](CC(=O)O)C(=O)N[C@@H](Cc1ccccc1)C(=O)N[C@H](C(=O)N[C@@H](CCC(N)=O)C(=O)N[C@@H](Cc1c[nH]c2ccccc12)C(=O)N[C@@H](CC(C)C)C(=O)N[C@@H](CC(C)C)C(=O)N[C@@H](CCC(=O)O)C(=O)NCC(=O)NCC(=O)N1CCC[C@H]1C(=O)N[C@@H](CO)C(=O)N[C@@H](CO)C(=O)NCC(=O)N[C@@H](C)C(=O)N1CCC[C@H]1C(=O)N1CCC[C@H]1C(=O)N1CCC[C@H]1C(=O)N[C@@H](CO)C(N)=O)C(C)C [compound 102] (H-Y[Aib]QGTFTSDYSK([AEEA-γGlu-C20 diacid])LLDYMMQRDFVQWLLEGGPSSGAPPPS-NH2; N-terminus and C-terminus assumed) |  |  |  |  |  |  |  |  |  |  |  |  | AUCinf/dose [2]: 672.93 ± 32.13 kg·h/L; half-life [2]: 9.77 ± 0.89 h; scores of hepatocytes inflammation and NAS score, in words [3]: statistically reduced; body weight compared to vehicle-treated control, in words [3]: reduce body weight; liver enzymes and liver steatosis compared to vehicle-treated control, in words [3]: reduce liver enzymes and liver steatosis significantly |
| Y[Aib]QGTFTSDYSK([AEEA-AEEA-γGlu-C20])LLDYMMQ[αMeR]DFVQWLLEGGPSSGAPPPS-NH2 [SEQ ID NO. 108] | 83 | 39 | 971 | 451 | 100 | 46 |  |  |  |  |  |  |  |
| Y[Aib]QGTFTSDYSK([AEEA-AEEA-γGlu-C18″])LLDYMMQ[αMeR]DFVQWLLEGGPSSGAPPPS-NH2 [SEQ ID NO. 101] |  |  |  |  |  |  | 12 | 89 | 65 | 472 | 100 | 722 |  |
| Y[Aib]QGTFTSDYSK([AEEA-AEEA-γGlu-C18″])LLDYMMQQDFVQWLLEGGPSSGAPPPS-NH2 [SEQ ID NO. 100] |  |  |  |  |  |  | 56 | 30 | 103 | 55 | 100 | 54 |  |
| Y[Aib]QGTFTSDYSK([AEEA-AEEA-γGlu-C18″])LLDYMMQRDFVQWLLEGGPSSGAPPPS-NH2 [Peptide No. 5-3D] |  |  |  |  |  |  | 26 | 56 | 105 | 230 | 100 | 219 | Relative % to non-lipidated peptide [10]: 1%; Relative % to non-lipidated peptide [11]: 15%; Relative % to non-lipidated peptide [12]: 19%; Ratio vs. GLP-1R [13]: 9; Ratio vs. GLP-1R [14]: 880; Ratio vs. GLP-1R [15]: 100; Relative % to native ligand [16]: 11%; Relative % to native ligand [17]: 1050%; Relative % to native ligand [18]: 119% |
| Y[Aib]QGTFTSDYSK([AEEA-AEEA-γGlu-C20])YLDYMMQ[αMeR]DFVQWLLEGGPSSGAPPPS-NH2 [SEQ ID NO. 107] | 37 | 14 | 537 | 200 | 100 | 37 |  |  |  |  |  |  |  |
| B1 | 29 | 11 | 272 | 105 | 100 | 39 |  |  |  |  |  |  |  |
